What was measured:
[1] = substrate: Cc1cn([C@H]2C[C@H](O)[C@@H](COP(=O)(O)O)O2)c(=O)[nH]c1=O; assay: KM determination of thymidylate kinase substrates (coupled PK/LDH assay, Lineweaver-Burk plot); type: biochemical, Saccharomyces cerevisiae; details: other: substrate of thymidylate kinase from yeast; FIG. 5
Procedure: (§1) FIG. 4: Graphical illustration of the kinetics of conversion of thymidylate and ATP by various concentration of thymidylate kinase in the assay. In an assay volume of 50 μl, 500 μM thymidylate, 500 μM ATP, 300 μM NADH, 400 μM PEP (phosphoenol pyruvate), 0.1 U pyruvate kinase and 0.1 U lactate dehydrogenase were employed. The conversion occurred on the basis of a decrease in absorption at 340 nm due to the reaction of the released ADP with PEP and NADH to form lactate and NAD.
(§2) FIG. 5: Lineweaver-Burk plot for determination of the KM value of dTMP (A) and ATP (B). The measured values are illustrated according to Lineweaver and Burk, i.e. 1/Vo=1/Vmax+1/S×(KM/Vmax), where Vo is the original reaction speed, Vmax is the maximum attainable reaction speed and S is the substrate concentration. Vmax and KM can then be calculated as the intercepts on the vertical axis and horizontal axis, 1/V and 1/KM. The KM value for dTMP is 0.17 mM […], the KM value for ATP is 0.16 mM […].
(§3) A preferred method (see Example 3) makes use of the fact that an adenosine diphosphate molecule (ADP) is released during the thymidylate kinase reaction. The activity, or the increase or decrease in activity, of the polypeptide according to the invention can thus be determined via detection of the resulting ADP. […]

[2] = substrate: Nc1ncnc2c1ncn2[C@@H]1O[C@H](COP(=O)(O)OP(=O)(O)OP(=O)(O)O)[C@@H](O)[C@H]1O; assay: as above; type: biochemical, Saccharomyces cerevisiae; details: other: substrate of thymidylate kinase from yeast; FIG. 5
Procedure: as §1, §2, §3

B1: thymidylate kinase from yeast (Saccharomyces cerevisiae S288C) (protein)
chain: MMGRGKLILIEGLDRTGKTTQCNILYKKLQPNCKLLKFPERSTRIGGLINEYLTDDSFQLSDQAIHLLFSANRWEIVDKIKKDLLEGKNIVMDRYVYSGVAYSAAKGTNGMDLDWCLQPDVGLLKPDLTLFLSTQDVDNNAEKSGFGDERYETVKFQEKVKQTFMKLLDKEIRKGDESITIVDVTNKGIQEVEALIWQIVEPVLSTHIDHDKFSFF
notes: His6 (with pDest17 vector linker) (N); made in house; host or cells: E. coli BL21(DE3)pLysS
Q: For B1, which Km [1] is on record?
A: 170 µM

Q: And the Km [2]?
A: 160 µM

From patent US20060171977A1, “Methods for the identification of fungicidally active compounds based on thymidylate kinase” (priority 2004, published 2006)
